Results taken from publication PMC2819628 (The Biochemical journal, 2010).

Target: T1, Isu1, mature form (amino acids 35-165) (yeast, UniProt Q03020 35-165)
T1 sequence (looked up): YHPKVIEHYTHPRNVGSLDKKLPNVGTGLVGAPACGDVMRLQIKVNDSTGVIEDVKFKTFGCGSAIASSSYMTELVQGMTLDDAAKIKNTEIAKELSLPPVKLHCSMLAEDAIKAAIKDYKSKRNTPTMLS
Experiment: other fluorescence titration

- binding result: binds
B1: Yfh1 (yeast frataxin), wild type, mature form (amino acids 52-174), holo form (natural protein, S. cerevisiae (yeast), UniProt Q07540 52-174, looked up)
chain: VESSTDGQVVPQEVLNLPLEKYHEEADDYLDHLLDSLEELSEAHPDCIPDVELSHGVMTLEIPAFGTYVINKQPPNKQIWLASPLSGPNRFDLLNGEWVSLRNGTKLTDILTEEVEKAISKSQ
